Source: patent publication US20260000736A1, “PURIFIED LACTOFERRIN COMPOSITIONS AND METHODS OF USE” (Lactea Therapeutics LLC, priority 2023, published 2026)
Where “and” joins values, the source holds several entries; their conditions need not be identical. Equal values may be shown once.

Assays:
[1] = tested on: Staphylococcus epidermidis; assay: Biofilm formation, crystal violet assay; type: cell-based; conditions: 24 hours of growth
Enterococcus faecalis = assay: Biofilm formation, crystal violet assay; type: cell-based; conditions: 24 hours of growth
E. coli 0157 [2] = assay: Bacterial growth inhibition, OD600 after 16 h; type: cell-based; conditions: 1 mg/mL Lf, 16 h at 37° C.; for Relative Bacterial Growth, Replicate 1 / Relative Bacterial Growth, Replicate 2 / Relative Bacterial Growth, Replicate 3: 10∝CFU/mL E. coli 0157 in LB, OD600 relative to untreated
Protocol: As an analytical standard for the assessment of Lactoferrin (Lf) activity, 1 mg/mL Lf was added to 10∝CFU/mL E. coli 0157 in LB and incubated for 16 h at 37° C. Lactea Lactoferrin (Lactea-Lf) was produced as described in the above examples. Assessed were three independent lots of Lactea-Lf, impure samples which were generated by co-eluting Lactoperoxidase and Lactoferrin (co-elution), samples with degradation products generated by eluting Lactoferrin from old milk which was left for three days (Degradation Products), and a Sigma Aldrich Lactoferrin L9507 (Research Standard). As shown in FIG. 16 and quantified in Table 5, in the Lactea-Lf lots assessed, less than 5% the total growth of bacteria was observed as assessed by OD600 relative to the growth of untreated bacteria under these conditions. In this case, co-elution samples were samples which have a detectable peak of LPO as observable in MALDI-TOF M/S or HPLC. Degradation Products had identifiable degradation peaks as observed in HPLC or DSC.

[3] = tested on: pigs with dermatome wounds; assay: Pig dermatome wound healing model; type: in vivo; conditions: dermatome wounds 40×40 mm at a depth of 0.76 mm, topical treatment
Protocol: In a first assessment in a pig model setting, using a dermatome, six wounds were made on each pig with three on the left side and three on the right side of each pig covering a surface area of 40×40 mm at a depth of 0.76 mm. […] For each pig, the wounds on the left of the animal were treated while the wounds on the right wide were left as untreated controls. […] Standard of care was advised on by veterinarians with experience in dealing with wound management in a farm setting.

E. coli = assay: Zone of inhibition test; type: cell-based
Protocol: A zone of inhibition test was performed to assess bioactivity of API-E2 Lactoferrin. A plate with E. coli was cultured with 100 µg/mL, 10 g/mL, 1 g/mL, and 0.1 g/mL API-E2 Lactoferrin added to paper circles and allowed to diffuse out.

[4] = Differential Scanning Calorimetry (DSC) of apolactoferrin and hololactoferrin forms; type: physicochemical; conditions: 10 mg/mL
Protocol: Di[…] Calorimetry (DSC) was used to assess the hololactoferrin and apolactoferrin forms through monitoring unfolding temperatures of lactoferrin samples using a nanoDSC (TA Instruments, Lindon, UT) according to standard DSC protocols known to those of skill in the art (e.g., see Hinz et al “M[…] […] OF […] ON […] DI[…] CALORIMETRY”; herein incorporated by reference for all purposes.
API-E2 Lactoferrin (10 mg/mL), produced as described herein, was assessed by DSC. […] The lack of other peaks indicates the lack of contaminants and impurities and can assess API-E2 as ˜100%. […] Additionally, the lack of other peaks also indicated the purity of API-E2 Lactoferrin. […] The API-E2 hololactoferrin peak has a Tm of 88.38+/−0.8 C and a delta H of 632.7+/−7.2 kJ/mol. The hololactoferrin natively accounted for on average 8.74+/−1.39% of the total API-E2 lactoferrin with apolactoferrin accounting for the rest in the samples tested. However, the hololactoferrin percentage can be naturally variable. The API-E2 was calculated by this technique to contain virtually 100% pure lactoferrin.
The assay was also performed with heat-treated API-E2 Lactoferrin. API-E2 Lactoferrin was heated across a range of 50-100° C.
Lab-grade standard lactoferrin and a commercially available supplement-grade lactoferrin were also assessed by DSC under the conditions used to assess API-E2 above.

E. coli 0157 [5] = assay: Biofilm formation, crystal violet assay; type: cell-based; conditions: for Biofilm Inhibition, Replicate 1 / Biofilm Inhibition, Replicate 2 / Biofilm Inhibition, Replicate 3: 24 hours
Protocol: Lactoferrin was assessed for biofilm growth inhibition. To study the relative concentration dependent efficacy of Lactea-Lf and the Sigma Aldrich research standard Lactoferrin in inhibiting biofilm formation, Lf was added at concentrations ranging from 2 mg/mL to 0.31 mg/mL (2-fold serial dilution curve) to E. coli 0157 in LB seeded at 10∝CFU/mL and incubated for 37° C. for 24 hours. Lactea Lactoferrin (Lactea-Lf) was produced as described in the above examples. The biofilm was stained using a standard crystal violet assay. A quantification of the inhibition of biofilm formation (FIG. 18A) and an image of a representative plate (FIG. 18B) are shown.

lactoperoxidase (LPO) = assay: Enzymatic colorimetric assay for lactoperoxidase (LPO) activity; type: biochemical; conditions: colorimetric peroxidase substrate
From the text: An enzymatic assay for lactoperoxidase (LPO) activity was developed utilizing a molecule which in the presence of peroxidase activity turns a blue color.

Streptococcus mutans = assay: Biofilm formation, crystal violet assay; type: cell-based; conditions: 24 hours of growth
Candida albicans = assay: Biofilm formation, crystal violet assay; type: cell-based; conditions: 24 hours of growth
[6] = DSC of additional batches, ratio of apo to holo-Lactoferrin; type: physicochemical; conditions: 5 mg/mL, 30° C. to 100° C. range
Protocol: Additional batches of Lactea-Lf as described in the above examples and the relative ratio of apo to holo-Lactoferrin was assessed by Differential Scanning Calorimetry (DSC). Lactoferrin samples were loaded at 5 mg/mL into a NanoDSC (TI Instruments) and measured in the 30° C. to 100° C. range. […] It is likely that these peaks are smaller as the sample is highly impure or contains already denatured product.

Escherichia coli = assay: Biofilm formation, crystal violet assay; type: cell-based; conditions: 24 hours of growth

B1: Lactea-Lf: bovine lactoferrin purified from raw untreated milk by cation exchange chromatography and filtration according to Example 1 (protein)
chain: APRKNVRWCTISQPEWFKCRRWQWRMKKLGAPSITCVRRAFALECIRAIAEKKADAVTLDGGMVFEAGRDPYKLRPVAAEIYGTKESPQTHYYAVAVVKKGSNFQLDQLQGRKSCHTGLGRSAGWVIPMGILRPYLSWTESLEPLQGAVAKFFSASCVPCIDRQAYPNLCQLCKGEGENQCACSSREPYFGYSGAFKCLQDGAGDVAFVKETTVFENLPEKADRDQYELLCLNNSRAPVDAFKECHLAQVPSHAVVARSVDGKEDLIWKLLSKAQEKFGKNKSRSFQLFGSPPGQRDLLFKDSALGFLRIPSKVDSALYLGSRYLTTLKNLRETAEEVKARYTRVVWCAVGPEEQKKCQQWSQQSGQNVTCATASTTDDCIVLVLKGEADALNLDGGYIYTAGKCGLVPVLAENRKTSKYSSLDCVLRPTEGYLAVAVVKKANEGLTWNSLKDKKSCHTAVDRTAGWNIPMGLIVNQTGSCAFDEFFSQSCAPGRDPKSRLCALCAGDDQGLDKCVPNSKEKYYGYTGAFRCLAEDVGDVAFVKNDTVWENTNGESTADWAKNLNREDFRLLCLDGTRKPVTEAQSCHLAVAPNHAVVSRSDRAAHVKQVLLHQQALFGKNGKNCPDKFCLFKSETKNLLFNDNTECLAKLGGRPTYEEYLGTEYVTAIANLKKCSTSPLLEACAFLTR
[1]
  Inhibition of Biofilm Formation: Strong (Lf was deemed to have a strong activity if biofilms were eliminated or significantly reduced to less than 90% less than no treatment at concentrations of 10 mg/mL or less after 24 hours of growth)
Enterococcus faecalis
  Inhibition of Biofilm Formation: Strong (Lf was deemed to have a strong activity if biofilms were eliminated or significantly reduced to less than 90% less than no treatment at concentrations of 10 mg/mL or less after 24 hours of growth)
E. coli 0157 [2]; listed as Lactea-Lf Lot 1
  Relative Bacterial Growth, Replicate 1: 3.15E−09
  Relative Bacterial Growth, Replicate 2: 0.002228
  Relative Bacterial Growth, Replicate 3: 0.04512
E. coli 0157 [2]; listed as Lactea-Lf Lot 2
  Relative Bacterial Growth, Replicate 1: 0.01532
  Relative Bacterial Growth, Replicate 2: 0.005292
  Relative Bacterial Growth, Replicate 3: 0.01281
E. coli 0157 [2]; listed as Lactea-Lf Lot 3
  Relative Bacterial Growth, Replicate 1: 0.003621
  Relative Bacterial Growth, Replicate 2: 0.01059
  Relative Bacterial Growth, Replicate 3: 0.008635
E. coli 0157 [2]
  total growth of bacteria by OD600 relative to the growth of untreated bacteria: less than 5%
[3]
  wound healing: healing occurred within one day
E. coli; 10 µg/mL on paper circles
  zone of inhibition: complete inhibition
E. coli; 100 µg/mL on paper circles
  zone of inhibition: complete inhibition
E. coli; 0.1 g/mL on paper circles
  zone of inhibition: No zone of inhibition
E. coli; 1 g/mL on paper circles
  zone of inhibition: limited zone of inhibition
[4]
  % of Total, Apolactoferrin: 91.26 +/− 1.39%
[4]; listed as API-E2
  % of Total, Hololactoferrin: 8.74+/−1.39%
  Delta H, Apolactoferrin peak: 466.1 ± 9.2 kJ/mol
  Delta H, Hololactoferrin peak: 632.7 ± 7.2 kJ/mol
  Tm, Apolactoferrin peak: 60.2+/−0.8 C and 60.2 +/− .8 C
  Tm, Hololactoferrin peak: 88.38+/−0.8 C and 88.38 +/− .8 C
E. coli 0157 [5]; E. coli 0157, 24 hours
  concentrations at which potent biofilm inhibition is seen: ≥ 100 µg/mL
E. coli 0157 [5]; [Lf] 0.031 mg/mL
  Biofilm Inhibition, Replicate 1: 0.6591
  Biofilm Inhibition, Replicate 2: 0.8959
  Biofilm Inhibition, Replicate 3: 0.7811
E. coli 0157 [5]; [Lf] 0.063 mg/mL
  Biofilm Inhibition, Replicate 1: 0.1874
  Biofilm Inhibition, Replicate 2: 0.1722
  Biofilm Inhibition, Replicate 3: 0.2125
E. coli 0157 [5]; [Lf] 0.125 mg/mL
  Biofilm Inhibition, Replicate 1: 0.03395
  Biofilm Inhibition, Replicate 2: 0.1076
  Biofilm Inhibition, Replicate 3: 0.0806
E. coli 0157 [5]; [Lf] 0.25 mg/mL
  Biofilm Inhibition, Replicate 1: 0.04609
  Biofilm Inhibition, Replicate 2: 0.07314
  Biofilm Inhibition, Replicate 3: 0.07011
E. coli 0157 [5]; [Lf] 0.5 mg/mL
  Biofilm Inhibition, Replicate 1: 0.04858
  Biofilm Inhibition, Replicate 2: 0.0748
  Biofilm Inhibition, Replicate 3: 0.08915
E. coli 0157 [5]; [Lf] 1 mg/mL
  Biofilm Inhibition, Replicate 1: 0.02346
  Biofilm Inhibition, Replicate 2: 0.09274
  Biofilm Inhibition, Replicate 3: 0.02898
E. coli 0157 [5]; [Lf] 2 mg/mL
  Biofilm Inhibition, Replicate 1: 0.006072
  Biofilm Inhibition, Replicate 2: 0.01601
  Biofilm Inhibition, Replicate 3: −0.01297
Lactoperoxidase (LPO)
  LPO enzymatic activity (blue color reaction): neither detected by M/S or by the enzymatic assay
Streptococcus mutans
  Inhibition of Biofilm Formation: Strong (Lf was deemed to have a strong activity if biofilms were eliminated or significantly reduced to less than 90% less than no treatment at concentrations of 10 mg/mL or less after 24 hours of growth)
Candida albicans
  Inhibition of Biofilm Formation: Strong (Lf was deemed to have a strong activity if biofilms were eliminated or significantly reduced to less than 90% less than no treatment at concentrations of 10 mg/mL or less after 24 hours of growth)
[6]
  denaturation peak corresponding to apo-Lf: ~60 °C
  denaturation peak corresponding to holo-Lf: 90 °C
  relative ratio of apo to holo-Lactoferrin, DSC peak pattern: heavily skewed towards apo-Lf
Escherichia coli
  Inhibition of Biofilm Formation: Strong (Lf was deemed to have a strong activity if biofilms were eliminated or significantly reduced to less than 90% less than no treatment at concentrations of 10 mg/mL or less after 24 hours of growth)
